According to patent publication US8039432B2, “Method of treatment of diabetes and/or obesity with reduced nausea side effect” (Conjuchem, LLC, priority 2005, dated 2011):
Read-outs that look alike come from different tables or passages of the source.

What was measured:
[1] = tested on: male Sprague-Dawley rats; assay: Kaolin intake (pica) test; details: for kaolin intake after dosing relative to 0.9% NaCl: LiCl IP, exendin-4 and CJC-1134-PC 0.5 nmol/kg SC
Method: (§1) Ninety male Sprague-Dawley rats of 6 weeks in age were housed individually and given food and water ad libitum. Habituation to kaolin was achieved by offering fresh blocks of kaolin daily for 8 days before dosing. Rats were then assigned to nine treatment groups (n=10/group).
(§2) Immediately following injection, animals were offered a fresh kaolin block in addition to food and water. Kaolin intake was measured every hour for a four-hour period immediately after dosing, and also at 6, 8, and 24 hours post dose (FIG. 3).

[2] = tested on: subjects; details: subcutaneous injection, 1.5 nmol/kg body weight and higher; cited from earlier work
[3] = tested on: male Sprague-Dawley rats; details: rat, in vivo
From the text: One model for studying gastrointestinal malaise in response to administration of a test agent is the conditioned taste aversion test (Peeters and Broekkamp, 1994, J. Steroid Biochem. Mol. Biol., 49:417-427). Conditioned taste aversion is a form of associative learning in which animals learn to avoid flavors of substances where initial ingestion of the substance was followed by illness. In conditioned taste aversion, animals learn to associate a flavor, or conditioned stimulus, with the aversive effects of an administered agent, or unconditioned stimulus. Following conditioned stimulus—unconditioned stimulus pairings, animals reduce their consumption of the conditioned stimulus, and/or show a preference for other tastes when later presented with the conditioned flavor. […] The conditioned stimulus was 0.1% saccharin flavored water with high palatability. […]
Following injection, all groups were given food ad libitum and 2 bottles of water. At 72 h and 96 h post dose, a choice of tap water or 0.1% saccharin solution (conditioned stimulus) was offered, and intake of both solutions was measured for 12 hours. Mean saccharin preference ratios, representing the percentage of saccharin solution consumed relative to total liquid intake, were determined for each group (FIGS. 1 and 2).

[4] = tested on: Sprague Dawley rats; assay: Rat toxicity study (7-day and 28-day); format: in vivo
Method: Immediately following injection, rats were housed individually, and food consumption and changes in body weights were monitored. […] However, by day 4, food consumption was similar to that observed in rats receiving vehicle only (FIG. 4). […] (FIG. 5).
Recombinant human albumin (rHA) was also dosed at 23 mg/kg as an additional control.

[5] = tested on: monkeys; assay: Monkey toxicity study (7-day and 28-day); format: in vivo
Method: Recombinant human albumin was also dosed at 9 mg/kg as an additional control.

[6] = tested on: female diabetic db/db mice; format: in vivo, mouse; details: for abnormal clinical signs: mouse, in vivo
Method: Blood glycemia was recorded at the following time points: pre-dose, 1, 3, 6, 24, 30, 48, 52, 74 and 101 hours post dose using a handheld glucometer (Accu-check compact, Roche Diagnostics, Canada). Food and water intake were recorded at the following timepoints: 0 to 6, 6 to 24, 24 to 30, 30 to 48, 48 to 72 and 72 to 101 hours post dose.

[7] = tested on: Male Zucker Diabetic Fatty (ZDF) rats; assay: Anti-obesity test in ZDF rats; format: in vivo, rat; details: for cumulative food intake relative to 0.9% NaCl group / cumulative weight gain compared to 0.9% NaCl: 25 days; for cumulative weight gain compared to 0.9% NaCl: four weekly SC injections, 100 and 200 nmol/kg; for day on which decrease in cumulative food intake reached statistical significance: relative to 0.9% NaCl group, weekly SC injections
Method: Control animal were injected with 0.9% NaCl. Animals were weighed twice a week and food intake was measured daily for the first week and four times a week thereafter for a total of 25 days. Statistical analysis was performed using two-way Analysis of Variance (ANOVA) followed by the Tukey's pair-wise comparison test. Significance was considered when P value was less than 0.05.

[8] = tested on: patients with stable Type 2 diabetes; assay: Phase I/II single escalating dose clinical study of CJC-1134-PC; format: in vivo, human; details: for Nausea (%) / Vomiting (%): N=6
Method: Patients enrolled in the trial had HbA1c levels between 6.5% and 11%. Patients previously treated with oral anti-diabetic agents discontinued therapy at least 1 week prior to dosing. […] Injections were performed with a 29 gauge needle. Each cohort consisted of 7 patients (6 active, 1 placebo). The mean glucose values at baseline of the cohorts (without placebo) were 15.6, 12.2, 12.1, 11.2, 9.6 and 15.3 mmol/L, respectively.
The efficacy parameters were based on the group mean and individual mean glucose values. Glucose was measured 6 times per day (fasting, 2-hour post-breakfast, pre-lunch, 2-hour post-lunch, pre-dinner and bedtime) during the first week and 3 times per day (fasting, 2-hour post-breakfast and bedtime) for the remaining 5 weeks of the study. In addition, a placebo group was constructed for data analysis by pooling the patients (one per cohort) that received placebo during the study. […] At the third cohort (1250 micrograms), the mean glucose reduction from baseline for the first week was 19% (ranging from 15% to 24% with a mean reduction on day 7 of 20%), giving an average glucose value for the week of 9.8 mmol/L. This glucose reduction was significant against baseline (p=0.0007) and against placebo (p=0.0045). […] The glucose reductions of the subsequent cohorts were of similar magnitude and duration and confirmed this response. At the 2500 microgram cohort, the average glucose value for the first week was reduced to 9.5 mmol/L; the value for the 5000 microgram cohort for the first week was reduced to 8.4 mmol/L. (The American Diabetes Association (ADA) has a recommended target of HbA1C<7%; a mean daily glucose level of 9.5 mmol/L corresponds to an HbA1C level of 7%).

[9] = tested on: male Sprague-Dawley rats; details: rat, in vivo; remark: listed apart in the source
Method: as §1, §2

[10] = 1250 μg (17.6 nmoles) single SC
[11] = 2500 μg (35.2 nmoles) single SC
[12] = 3750 μg (52.8 nmoles) single SC
[13] = 5000 μg (70.4 nmoles) single SC
[14] = first four cohorts (310, 620, 1250 and 2500 μg)

With [Cl-].[Li+] [LiCl, Lithium chloride, reference compound] as the compound, how does the “kaolin intake after dosing relative to 0.9% NaCl” value [1] read?
The value was “significant kaolin intake after 1 h”.

With “GLP-1: proglucagon-derived peptide secreted from intestinal L-cells; incretin” as the compound, how does the nausea and vomiting [2] read?
Its nausea and vomiting is “lead to nausea and, less often, vomiting in a significant proportion of subjects”.

With “exendin-4(1-39) Lys^40 (ε-AEEA-MPA)-NH2 conjugated with albumin [CJC-1134-PC]” as the compound, how does the “taste aversion response compared to unconjugated exendin-4” value [3] read?
Its value is “significantly lower taste aversion response”.

What about the “clinical chemistry, hematology, urinalysis, organ weights, macroscopic evaluations” value ([4]; rat 7-day study) of the same compound?
The value was “no effects on clinical chemistry, hematology, urinalysis, or organ weights, or on macroscopic evaluations”.

And the “mortality or serious signs of toxicity” value ([4]; rat 7-day study, 1, 5 or 25 mg/kg/day SC)?
The value was “no mortality or serious signs of toxicity were observed”.

And the food consumption ([4]; rat 7-day study, 5 and 25 mg/kg/day SC, similar to vehicle by day 4)?
Its food consumption is “dose dependent decrease in food consumption was observed at days 1-3”.

What about the macroscopic evaluations ([4]; rat 28-day study) of the same compound?
The macroscopic evaluations was “no effects on macroscopic evaluations”.

What about the food consumption ([4]; rat 28-day study, 25 mg/kg, comparable across groups by day 8) of the same compound?
Its food consumption is “decrease in food consumption was observed at 25 mg/kg from days 1-7”.

What about the body weight ([4]; rat 28-day study, 25 mg/kg, weight gain comparable days 4-28) of the same compound?
Its body weight is “Decreases in body weight were also observed at the 25 mg/kg/doses at days 1-4”.

What about the “activity and fecal output” value ([4]; rat 28-day study, following injections) of the same compound?
The value was “transient decrease in activity and fecal output”.

What about the tolerability ([4]; rats, up to 25 mg/kg) of the same compound?
Its tolerability is “generally well tolerated”.

What about the “clinical chemistry, hematology, urinalysis, organ weights, macroscopic evaluations” value ([5]; monkey 7-day study) of the same compound?
Its value is “no effects on clinical chemistry, hematology, urinalysis, or organ weights, or on macroscopic evaluations”.

And the “mortality or serious signs of toxicity” value ([5]; monkey 7-day study, 0.4, 2 and 10 mg/kg/day SC)?
Its value is “no mortality or serious signs of toxicity were observed”.

And the “food consumption (number of biscuits per day)” value ([5]; monkey 7-day study, days 1-3, all groups including vehicle control, comparable by days 4-7)?
The value was “Initial decreases in food consumption”.

What about the body weight ([5]; monkey 7-day study, moderately attenuated by day 7) of the same compound?
Its body weight is “dose-dependent decrease in body weight by day 3”.

What about the body weight ([5]; monkey 28-day study) of the same compound?
Its body weight is “dose dependent decrease in body weight was observed throughout the 28-day period”.

And the clinical signs ([5]; monkey 28-day study)?
Its clinical signs is “transient decrease in activity, hunched posture, and decreased fecal output”.

What about the macroscopic evaluations ([5]; monkey 28-day study) of the same compound?
Its macroscopic evaluations is “no effects on macroscopic evaluations”.

And the food consumption ([5]; monkey 28-day study, 10 mg/kg, comparable across groups by day 7)?
Its food consumption is “significantly reduced at 10/mg/kg on days 2 and 3”.

What about the tolerability ([5]; monkeys, up to 10 mg/kg) of the same compound?
Its tolerability is “generally well tolerated”.

And the “blood glucose levels compared to 100 nmol/kg unconjugated exendin-4” value ([6]; 100 nmol/kg single SC, 24 h post dose)?
The value was “significantly lower”.

And the “blood glucose levels compared to unconjugated exendin-4” value ([6]; 100 nmol/kg single SC, out to 48 h post dose)?
The value was “remained lower”.

And the “food and water consumption compared to unconjugated exendin-4” value ([6]; 24-47 h post dose)?
The value was “remained lower”.

And the “food and water consumption compared to unconjugated exendin-4” value ([6]; after 24 hours)?
Its value is “significantly reduced”.

What about the “blood glucose levels compared to unconjugated exendin-4” value ([6]; after 72 h) of the same compound?
Its value is “comparable”.

And the “food consumption relative to exendin-4 treated mice” value ([6]; after 74 h, maintained out to 101 h post dose)?
Its value is “only moderately lower”.

What about the abnormal clinical signs [6] of the same compound?
Its abnormal clinical signs is “No abnormal clinical signs”.

And the “water consumption relative to exendin-4 treated mice” value ([6]; out to 101 h post dose)?
Its value is “moderately lower”.

What about the “day from which reduction of cumulative weight gain was statistically significant” value ([7]; 100 nmol/kg, p≦0.05) of the same compound?
The value was 11 days.

What about the “day from which reduction of cumulative weight gain was statistically significant” value ([7]; 200 nmol/kg, p≦0.01) of the same compound?
The value was 4 days.

And the “cumulative food intake relative to 0.9% NaCl group” value [7]?
The value was “Reduction in cumulative food intake”.

And the “cumulative weight gain compared to 0.9% NaCl” value [7]?
The value was “significantly reduced”.

What about the “day on which decrease in cumulative food intake reached statistical significance” value [7] of the same compound?
Its value is 9 days.

And the “Nausea (%)” value ([8]; 310 μg (4.4 nmoles) single SC)?
The value was 0%.

And the “Vomiting (%)” value ([8]; 310 μg (4.4 nmoles) single SC)?
Its value is 0%.

And the “Nausea (%)” value ([8]; 620 μg (8.7 nmoles) single SC)?
Its value is 0%.

And the “Vomiting (%)” value ([8]; 620 μg (8.7 nmoles) single SC)?
The value was 0%.

What about the “Nausea (%)” value [8, 10] of the same compound?
The value was 0%.

What about the “Vomiting (%)” value [8, 10] of the same compound?
Its value is 0%.

What about the “Nausea (%)” value [8, 11] of the same compound?
Its value is 0%.

And the “Vomiting (%)” value [8, 11]?
Its value is 0%.

And the “Nausea (%)” value [8, 12]?
The value was 17%.

And the “Vomiting (%)” value [8, 12]?
The value was 17%.

And the “Nausea (%)” value [8, 13]?
The value was 50%.

And the “Vomiting (%)” value [8, 13]?
Its value is 17%.

What about the “average glucose value for the first week” value ([8]; 1250 micrograms) of the same compound?
Its value is 9.8 mmol/L.

What about the “duration of glucose lowering effect” value ([8]; 1250 micrograms) of the same compound?
The value was “more than 2 weeks”.

What about the “mean glucose reduction from baseline on day 7” value ([8]; 1250 micrograms) of the same compound?
Its value is 20%.

What about the “mean glucose reduction from baseline for the first week” value ([8]; 1250 micrograms, p=0.0007 vs baseline, p=0.0045 vs placebo) of the same compound?
Its value is 19%.

And the “average glucose value for the first week” value ([8]; 2500 microgram cohort)?
The value was 9.5 mmol/L.

And the “average glucose value for the first week” value ([8]; 5000 microgram cohort)?
Its value is 8.4 mmol/L.

And the “symptoms (headache, dizziness, light-headedness without documented hypoglycaemia)” value ([8]; 5000 microgram cohort)?
Its value is “symptoms linked to an over stimulation of the GLP-1 receptors were observed”.

And the injection site reactions [8, 14]?
The injection site reactions was “no injection site reactions”.

What about the safety and tolerability [8, 14] of the same compound?
Its safety and tolerability is “no safety or tolerability issues”.

And the efficacy on glucose ([8]; first two cohorts (310 and 620 micrograms))?
The efficacy on glucose was “Limited or no efficacy”.

And the “average weight loss at day 7” value ([8]; first two non-active cohorts)?
The value was 0.4 kg.

What about the gastric stasis ([8]; in each of the 3750 and 5000 μg cohorts, post-lunch on day one) of the same compound?
Its gastric stasis is “one mild and transient case of short-term gastric stasis”.

And the “dose linearity of plasma concentrations” value ([8]; single SC dose, 310-5000 μg)?
The value was “dose linear”.

And the “average weight loss at day 7” value ([8]; three following cohorts where activity was observed on glucose)?
The value was 0.9 kg.

And the “kaolin intake after dosing relative to 0.9% NaCl” value [1]?
The value was “kaolin intake was only moderately increased after 6 h”.

What about the “kaolin intake relative to 0.9% NaCl, first 2 h” value ([1]; first 2 h post dose) of the same compound?
The value was “Minimal kaolin intake”.

Which “conditioned taste aversion (saccharin preference ratio compared to vehicle control)” value [3] does the source give for exendin-4(1-39) [reference compound] here?
The value was “decreased significantly the preference saccharine ratio”.

What about the abnormal clinical signs [6] of the same compound?
Its abnormal clinical signs is “No abnormal clinical signs”.

What about the “cumulative food intake relative to 0.9% NaCl group” value [7] of the same compound?
Its value is “Reduction in cumulative food intake”.

What about the “cumulative weight gain compared to 0.9% NaCl” value [7] of the same compound?
The value was “not significant”.

And the “day on which decrease in cumulative food intake reached statistical significance” value [7]?
The value was 16 days.

And the “kaolin intake relative to 0.9% NaCl, first 2 h” value [9]?
Its value is “Minimal kaolin intake”.
